Measured values from IntAct's records for PubMed 22424946.

B1: Ras-related GTP-binding protein D (Homo sapiens), Q9NQL2 (parent)
chain: MSQVLGKPQPQDEDDAEEEEEEDELVGLADYGDGPDSSDADPDSGTEEGVLDFSDPFSTEVKPRILLMGLRRSGKSSIQKVVFHKMSPNETLFLESTNKICREDVSNSSFVNFQIWDFPGQIDFFDPTFDYEMIFRGTGALIFVIDSQDDYMEALARLHLTVTRAYKVNTDINFEVFIHKVDGLSDDHKIETQRDIHQRANDDLADAGLEKIHLSFYLTSIYDHSIFEAFSKVVQKLIPQLPTLENLLNIFISNSGIEKAFLFDVVSKIYIATDSTPVDMQTYELCCDMIDVVIDISCIYGLKEDGAGTPYDKESTAIIKLNNTTVLYLKEVTKFLALVCFVREESFERKGLIDYNFHCFRKAIHEVFEVRMKVVKSRKVQNRLQKKKRATPNGTPRVLL

Variants of: B1
Conditions: with sylc_human LARS1, Q9P2J5
Chain of sylc_human LARS1, Q9P2J5 (Q9P2J5 whole entry, looked up): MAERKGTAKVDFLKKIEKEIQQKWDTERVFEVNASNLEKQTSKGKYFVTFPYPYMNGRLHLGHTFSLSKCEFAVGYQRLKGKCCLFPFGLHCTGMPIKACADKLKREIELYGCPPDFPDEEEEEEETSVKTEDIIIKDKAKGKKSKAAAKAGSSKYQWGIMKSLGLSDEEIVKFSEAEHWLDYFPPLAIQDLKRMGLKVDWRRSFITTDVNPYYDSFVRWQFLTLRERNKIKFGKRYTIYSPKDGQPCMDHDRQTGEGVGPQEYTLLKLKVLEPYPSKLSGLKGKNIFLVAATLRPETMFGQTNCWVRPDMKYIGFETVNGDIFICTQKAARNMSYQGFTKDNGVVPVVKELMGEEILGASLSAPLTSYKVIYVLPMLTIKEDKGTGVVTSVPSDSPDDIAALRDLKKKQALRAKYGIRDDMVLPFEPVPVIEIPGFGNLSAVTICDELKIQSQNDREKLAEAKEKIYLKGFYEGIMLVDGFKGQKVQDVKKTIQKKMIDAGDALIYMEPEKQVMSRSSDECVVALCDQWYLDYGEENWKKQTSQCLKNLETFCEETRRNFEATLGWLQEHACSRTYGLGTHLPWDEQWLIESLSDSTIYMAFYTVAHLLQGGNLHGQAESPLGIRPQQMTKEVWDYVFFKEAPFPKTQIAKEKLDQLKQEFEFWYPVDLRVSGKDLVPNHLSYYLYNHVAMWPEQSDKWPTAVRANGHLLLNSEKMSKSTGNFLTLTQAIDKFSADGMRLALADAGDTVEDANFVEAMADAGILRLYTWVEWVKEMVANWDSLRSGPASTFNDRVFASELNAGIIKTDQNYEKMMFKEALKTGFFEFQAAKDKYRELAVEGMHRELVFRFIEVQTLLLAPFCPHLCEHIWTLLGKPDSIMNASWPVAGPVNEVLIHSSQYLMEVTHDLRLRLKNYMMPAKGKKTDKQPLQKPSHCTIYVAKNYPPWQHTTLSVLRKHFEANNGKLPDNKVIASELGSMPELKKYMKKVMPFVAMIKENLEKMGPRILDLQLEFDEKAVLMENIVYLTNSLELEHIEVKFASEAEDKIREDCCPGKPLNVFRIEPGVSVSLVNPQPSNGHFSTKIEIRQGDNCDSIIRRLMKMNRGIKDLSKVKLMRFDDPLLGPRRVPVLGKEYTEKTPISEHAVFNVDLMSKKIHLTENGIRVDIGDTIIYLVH

effect of a mutation on the interaction	Variant
increasing interaction strength	MSQVLGKPQPQDEDDAEEEEEEDELVGLADYGDGPDSSDADPDSGTEEGVLDFSDPFSTEVKPRILLMGLRRSGKSSIQKVVFHKMSPNETLFLESTNKICREDVSNSSFVNFQIWDFPGLIDFFDPTFDYEMIFRGTGALIFVIDSQDDYMEALARLHLTVTRAYKVNTDINFEVFIHKVDGLSDDHKIETQRDIHQRANDDLADAGLEKIHLSFYLTSIYDHSIFEAFSKVVQKLIPQLPTLENLLNIFISNSGIEKAFLFDVVSKIYIATDSTPVDMQTYELCCDMIDVVIDISCIYGLKEDGAGTPYDKESTAIIKLNNTTVLYLKEVTKFLALVCFVREESFERKGLIDYNFHCFRKAIHEVFEVRMKVVKSRKVQNRLQKKKRATPNGTPRVLL [Q121L]
decreasing interaction strength	MSQVLGKPQPQDEDDAEEEEEEDELVGLADYGDGPDSSDADPDSGTEEGVLDFSDPFSTEVKPRILLMGLRRSGKSLIQKVVFHKMSPNETLFLESTNKICREDVSNSSFVNFQIWDFPGQIDFFDPTFDYEMIFRGTGALIFVIDSQDDYMEALARLHLTVTRAYKVNTDINFEVFIHKVDGLSDDHKIETQRDIHQRANDDLADAGLEKIHLSFYLTSIYDHSIFEAFSKVVQKLIPQLPTLENLLNIFISNSGIEKAFLFDVVSKIYIATDSTPVDMQTYELCCDMIDVVIDISCIYGLKEDGAGTPYDKESTAIIKLNNTTVLYLKEVTKFLALVCFVREESFERKGLIDYNFHCFRKAIHEVFEVRMKVVKSRKVQNRLQKKKRATPNGTPRVLL [S77L]
